What was measured:
[1] = biological target: T1, PU.1 ETS domain (PU.1ΔN167) (murine, UniProt P17433 167-272); assay: competition
[2] = biological target: T1, PU.1 ETS domain (PU.1ΔN167); assay: fluorescence anisotropy
[3] = biological target: T1, PU.1 ETS domain (PU.1ΔN167); assay: competition; remark: listed apart in the source

B1: NS (dsDNA)
DNA 1: GCGAATAAGCGAGAGTGAAACCG
DNA 2: CGGTTTCACTCTCGCTTATTCGC
[1]
  binding result: no binding

B2: Alexa Fluor 488 end-labeled duplex (dsDNA)
DNA 1: CAAGCGGAAGTGAG
DNA 2: CTCACTTCCGCTTG
[2]
  binding result: binds

B3: [5']AGC (dsDNA)
DNA 1: GCGAATAAGCGGAAGTGAAACCG
DNA 2: CGGTTTCACTTCCGCTTATTCGC
[3]
  binding signal: ~1 Kd ratio to Cy3-[5']AGC (equal within experimental uncertainty)
